Laboratory results taken from the supplement of paper PMC10065799, “High-throughput profiling of sequence recognition by tyrosine kinases and SH2 domains using bacterial peptide display” (eLife, 2023).

What was measured:
SHP2-C SH2 = assay: SH2 binding enrichment of the phosphorylated peptide, bacterial display (enrichment ratio); higher = better substrate or ligand; peptides without Tyr show the background
Grb2 SH2 = Grb2 SH2 (UniProt P62993); assay: as above
c-Src SH2 = assay: as above
EPHB2 = EPHB2 (UniProt P29323); assay: phosphorylation enrichment, bacterial display (enrichment ratio); higher = better substrate or ligand; peptides without Tyr show the background
AncSZ = assay: as above
FGFR3 = FGFR3 (UniProt P22607); assay: as above
MERTK = MERTK (UniProt Q12866); assay: as above
Jak2 = Jak2 (UniProt O60674); assay: as above
Fer (mouse) = assay: as above
Hck = Hck (UniProt P08631); assay: as above
EPHB1 = EPHB1 (UniProt P54762); assay: as above
c-Src = assay: as above
Fyn = Fyn (UniProt P06241); assay: as above
FGFR1 = FGFR1 (UniProt P11362); assay: as above
c-Abl (mouse) = assay: as above
Fes = Fes (UniProt P07332); assay: as above
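Throughout, for SH2 binding enrichment of the phosphorylated peptide, bacterial display: peptide library displayed on the E. coli surface as eCPX fusions, selected cells deep-sequenced, score is each peptide's frequency after selection divided by its frequency in the input.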
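Throughout, for phosphorylation enrichment, bacterial display: 11-residue human phosphosite peptides and single-mutation variants displayed on the E. coli surface, counted by deep sequencing, each peptide's frequency after selection divided by its frequency in the unselected input library; frequency after pTyr selection over input frequency; kinase dosed for 20-30% of maximal phosphorylation in three min.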

Fes, sequence (P07332 whole entry, looked up, the tested form may be a part): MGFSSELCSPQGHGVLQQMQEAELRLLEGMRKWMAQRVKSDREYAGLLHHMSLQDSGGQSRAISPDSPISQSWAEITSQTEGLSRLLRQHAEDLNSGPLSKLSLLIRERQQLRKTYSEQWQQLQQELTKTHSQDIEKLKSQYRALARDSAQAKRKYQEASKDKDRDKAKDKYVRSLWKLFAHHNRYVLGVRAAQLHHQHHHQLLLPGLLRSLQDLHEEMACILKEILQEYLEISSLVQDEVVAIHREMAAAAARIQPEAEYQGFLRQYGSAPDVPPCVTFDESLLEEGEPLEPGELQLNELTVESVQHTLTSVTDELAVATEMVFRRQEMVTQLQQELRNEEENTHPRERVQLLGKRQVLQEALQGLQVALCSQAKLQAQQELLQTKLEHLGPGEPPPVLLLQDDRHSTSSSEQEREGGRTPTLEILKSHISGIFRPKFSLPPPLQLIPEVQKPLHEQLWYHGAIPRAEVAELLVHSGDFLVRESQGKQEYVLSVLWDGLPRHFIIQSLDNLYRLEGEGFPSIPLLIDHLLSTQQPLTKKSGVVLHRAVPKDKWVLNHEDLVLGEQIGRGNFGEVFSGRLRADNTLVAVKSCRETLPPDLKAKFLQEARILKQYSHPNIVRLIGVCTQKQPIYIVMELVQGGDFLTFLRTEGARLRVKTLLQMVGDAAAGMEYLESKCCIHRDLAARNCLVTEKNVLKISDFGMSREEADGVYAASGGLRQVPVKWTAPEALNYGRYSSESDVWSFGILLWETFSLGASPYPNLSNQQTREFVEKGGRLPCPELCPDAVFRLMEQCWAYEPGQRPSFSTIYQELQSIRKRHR
MERTK, sequence (Q12866 whole entry, looked up): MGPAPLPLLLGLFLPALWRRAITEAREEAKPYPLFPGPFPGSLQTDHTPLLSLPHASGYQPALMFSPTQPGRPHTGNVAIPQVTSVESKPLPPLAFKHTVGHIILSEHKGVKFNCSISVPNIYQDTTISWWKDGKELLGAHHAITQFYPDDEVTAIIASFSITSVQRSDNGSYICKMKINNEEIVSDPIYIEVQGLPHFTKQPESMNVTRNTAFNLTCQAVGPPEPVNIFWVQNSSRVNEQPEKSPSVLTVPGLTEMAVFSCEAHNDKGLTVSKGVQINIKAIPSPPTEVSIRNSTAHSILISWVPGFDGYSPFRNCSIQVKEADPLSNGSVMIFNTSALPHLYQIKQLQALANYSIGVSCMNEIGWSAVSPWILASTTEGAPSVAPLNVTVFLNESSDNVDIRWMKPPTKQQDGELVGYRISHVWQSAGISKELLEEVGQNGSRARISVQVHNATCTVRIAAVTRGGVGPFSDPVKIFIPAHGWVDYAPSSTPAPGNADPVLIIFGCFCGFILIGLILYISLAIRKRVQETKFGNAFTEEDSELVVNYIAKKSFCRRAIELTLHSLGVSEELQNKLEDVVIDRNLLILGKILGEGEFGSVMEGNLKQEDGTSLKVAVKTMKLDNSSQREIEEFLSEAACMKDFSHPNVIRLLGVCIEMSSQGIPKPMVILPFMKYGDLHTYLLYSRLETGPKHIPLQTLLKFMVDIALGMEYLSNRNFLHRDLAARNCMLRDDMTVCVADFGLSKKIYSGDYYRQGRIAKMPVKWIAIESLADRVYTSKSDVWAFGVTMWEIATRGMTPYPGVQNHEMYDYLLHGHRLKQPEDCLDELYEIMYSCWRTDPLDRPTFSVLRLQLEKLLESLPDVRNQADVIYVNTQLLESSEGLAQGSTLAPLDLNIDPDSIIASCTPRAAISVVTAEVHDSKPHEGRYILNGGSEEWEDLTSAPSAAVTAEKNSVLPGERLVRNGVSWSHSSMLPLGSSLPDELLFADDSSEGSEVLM
EPHB2, sequence (P29323 whole entry, looked up): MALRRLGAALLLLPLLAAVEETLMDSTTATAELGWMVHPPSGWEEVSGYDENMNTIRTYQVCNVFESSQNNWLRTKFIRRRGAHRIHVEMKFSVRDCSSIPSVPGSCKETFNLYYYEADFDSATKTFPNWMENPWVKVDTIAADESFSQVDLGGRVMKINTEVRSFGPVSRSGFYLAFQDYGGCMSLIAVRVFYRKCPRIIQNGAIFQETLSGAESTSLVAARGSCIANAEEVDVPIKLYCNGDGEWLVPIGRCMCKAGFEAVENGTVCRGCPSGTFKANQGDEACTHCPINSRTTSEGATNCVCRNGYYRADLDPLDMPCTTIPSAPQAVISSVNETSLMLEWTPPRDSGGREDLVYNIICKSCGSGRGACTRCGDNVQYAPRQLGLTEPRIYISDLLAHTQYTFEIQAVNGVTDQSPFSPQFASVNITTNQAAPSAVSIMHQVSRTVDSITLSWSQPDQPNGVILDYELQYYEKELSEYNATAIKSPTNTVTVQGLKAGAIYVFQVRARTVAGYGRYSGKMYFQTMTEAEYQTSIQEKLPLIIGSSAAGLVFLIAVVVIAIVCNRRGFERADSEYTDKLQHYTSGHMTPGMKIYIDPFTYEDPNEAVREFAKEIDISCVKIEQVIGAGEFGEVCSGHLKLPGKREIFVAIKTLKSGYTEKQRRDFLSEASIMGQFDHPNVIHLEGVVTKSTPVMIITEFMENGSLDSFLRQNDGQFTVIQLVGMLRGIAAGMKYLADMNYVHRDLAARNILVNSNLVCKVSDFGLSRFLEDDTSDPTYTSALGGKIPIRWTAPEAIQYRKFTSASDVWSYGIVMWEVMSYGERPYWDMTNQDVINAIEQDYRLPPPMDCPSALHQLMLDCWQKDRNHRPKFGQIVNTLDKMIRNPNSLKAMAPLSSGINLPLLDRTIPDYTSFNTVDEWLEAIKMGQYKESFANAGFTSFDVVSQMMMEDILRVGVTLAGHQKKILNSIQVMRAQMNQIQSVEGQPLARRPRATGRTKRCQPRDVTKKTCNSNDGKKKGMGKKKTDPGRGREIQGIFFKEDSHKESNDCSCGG
Fyn, sequence (P06241 whole entry, looked up): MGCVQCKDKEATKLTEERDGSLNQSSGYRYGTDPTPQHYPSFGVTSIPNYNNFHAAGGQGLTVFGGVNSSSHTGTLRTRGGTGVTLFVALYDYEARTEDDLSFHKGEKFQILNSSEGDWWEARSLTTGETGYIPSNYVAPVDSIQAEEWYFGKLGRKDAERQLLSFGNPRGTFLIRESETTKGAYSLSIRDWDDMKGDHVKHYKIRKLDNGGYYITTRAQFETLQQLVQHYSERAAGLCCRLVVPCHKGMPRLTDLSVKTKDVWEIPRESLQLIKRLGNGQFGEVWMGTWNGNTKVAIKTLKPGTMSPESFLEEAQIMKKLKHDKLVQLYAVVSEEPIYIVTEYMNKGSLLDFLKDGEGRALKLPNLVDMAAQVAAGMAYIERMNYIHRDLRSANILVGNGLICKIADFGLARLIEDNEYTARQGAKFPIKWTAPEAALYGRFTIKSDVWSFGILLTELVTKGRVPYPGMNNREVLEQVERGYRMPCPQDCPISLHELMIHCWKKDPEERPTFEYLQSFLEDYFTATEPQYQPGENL
Hck, sequence (P08631 whole entry, looked up): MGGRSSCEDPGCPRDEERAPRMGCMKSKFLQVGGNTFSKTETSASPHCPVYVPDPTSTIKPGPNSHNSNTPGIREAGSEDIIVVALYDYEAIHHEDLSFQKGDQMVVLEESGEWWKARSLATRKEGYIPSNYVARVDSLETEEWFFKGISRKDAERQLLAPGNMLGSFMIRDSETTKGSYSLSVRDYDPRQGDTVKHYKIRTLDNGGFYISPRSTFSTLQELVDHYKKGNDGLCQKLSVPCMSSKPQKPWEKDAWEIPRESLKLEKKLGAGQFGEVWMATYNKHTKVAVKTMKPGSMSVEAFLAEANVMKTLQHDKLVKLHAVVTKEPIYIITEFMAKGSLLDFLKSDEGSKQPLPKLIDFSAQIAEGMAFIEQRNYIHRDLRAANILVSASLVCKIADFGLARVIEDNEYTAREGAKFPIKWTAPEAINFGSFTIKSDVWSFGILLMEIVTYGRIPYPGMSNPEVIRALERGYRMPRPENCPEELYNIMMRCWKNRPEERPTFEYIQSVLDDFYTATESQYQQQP
FGFR3, sequence (P22607 whole entry, looked up): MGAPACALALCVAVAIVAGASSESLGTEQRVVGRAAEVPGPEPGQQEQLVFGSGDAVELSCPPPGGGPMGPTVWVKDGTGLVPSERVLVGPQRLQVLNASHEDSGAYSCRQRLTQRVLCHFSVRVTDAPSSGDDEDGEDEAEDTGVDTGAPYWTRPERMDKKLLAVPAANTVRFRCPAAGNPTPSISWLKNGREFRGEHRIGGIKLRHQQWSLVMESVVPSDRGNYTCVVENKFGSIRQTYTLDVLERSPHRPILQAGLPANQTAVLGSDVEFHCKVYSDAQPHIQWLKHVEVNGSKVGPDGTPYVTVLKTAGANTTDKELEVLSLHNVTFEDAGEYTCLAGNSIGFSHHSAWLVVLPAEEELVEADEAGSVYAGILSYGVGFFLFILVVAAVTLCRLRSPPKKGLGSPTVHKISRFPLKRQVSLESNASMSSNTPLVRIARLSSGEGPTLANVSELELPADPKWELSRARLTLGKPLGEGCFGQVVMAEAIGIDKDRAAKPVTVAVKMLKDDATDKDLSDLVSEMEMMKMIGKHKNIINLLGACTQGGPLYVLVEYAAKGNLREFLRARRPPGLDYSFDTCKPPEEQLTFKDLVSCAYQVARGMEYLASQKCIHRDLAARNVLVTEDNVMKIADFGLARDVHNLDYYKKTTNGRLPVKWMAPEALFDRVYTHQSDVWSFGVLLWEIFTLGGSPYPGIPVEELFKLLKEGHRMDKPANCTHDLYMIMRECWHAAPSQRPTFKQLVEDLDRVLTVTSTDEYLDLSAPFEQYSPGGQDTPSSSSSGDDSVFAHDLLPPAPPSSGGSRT

Row | SH2 binding enrichment (SHP2-C SH2) | SH2 binding enrichment (Grb2 SH2) | SH2 binding enrichment (c-Src SH2) | Sequence | phosphorylation enrichment (EPHB2) | phosphorylation enrichment (AncSZ) | phosphorylation enrichment (FGFR3) | phosphorylation enrichment (MERTK) | phosphorylation enrichment (Jak2) | phosphorylation enrichment (Fer (mouse)) | phosphorylation enrichment (Hck) | phosphorylation enrichment (EPHB1) | phosphorylation enrichment (c-Src) | phosphorylation enrichment (Fyn) | phosphorylation enrichment (FGFR1) | phosphorylation enrichment (c-Abl (mouse)) | phosphorylation enrichment (Fes)
1 | 0.444 | 0.836 | 0.31 | LKGQVYILGRE [ASS1_Y359] | 0.949 | 1.09 | 1.07 | 0.56 | 1.17 | 0.756 | 0.369 | 0.522 | 0.438 | 0.679 | 0.406 | 1.47 | 1.26
2 | 1.19 | 1.47 | 1.03 | RQSTLYSFFPK [MSH6_Y8] | 18.9 | 1.34 | 5.16 | 22.1 | 0.685 | 4.37 | 14.6 | 18.4 | 7.83 | 5.84 | 6.8 | 5.61 | 1.77
3 | 0.78 | 0.837 | 0.421 | FTRNFYVQAVL [CYBA_Y88_R90Q_YF] | 0.57 | 0.993 | 0.795 | 0.494 | 1.15 | 0.654 | 0.483 | 0.81 | 0.474 | 0.435 | 0.563 | 0.742 | 1.31
4 | 0.73 | 0.884 | 0.529 | KMGNIYRTEYG [MRPL3_Y265] | 0.373 | 0.621 | 0.526 | 0.539 | 0.577 | 0.334 | 0.477 | 0.488 | 0.536 | 0.475 | 0.413 | 0.496 | 0.701
5 | 0.524 | 0.803 | 0.531 | DSRRDYVSQFE [APOA1_Y53_G50R] | 0.447 | 0.762 | 0.503 | 0.464 | 0.645 | 0.387 | 0.478 | 0.456 | 0.43 | 0.409 | 0.542 | 0.567 | 0.709
6 | 0.515 | 0.674 | 0.494 | EFFDGYWEFSV [ITGA2B_Y265_G267E_YF] | 0.577 | 1.98 | 6.69 | 0.631 | 3.11 | 0.515 | 2.29 | 0.709 | 5.58 | 3.4 | 8.09 | 1.19 | 1.55
7 | 1.09 | 0.602 | 0.654 | PQGVRYIFTID [DCX_Y103_YF] | 0.524 | 1.68 | 0.96 | 0.664 | 1.89 | 0.826 | 0.714 | 0.587 | 0.587 | 0.617 | 0.61 | 1.38 | 3.66
8 | 0.692 | 0.918 | 0.568 | VGTTAYMAPEA [IRAK4_Y354] | 0.379 | 0.707 | 0.517 | 0.354 | 0.689 | 0.452 | 0.434 | 0.385 | 0.414 | 0.407 | 0.418 | 0.537 | 0.893
9 | 2.18 | 1.54 | 6.14 | QNTGYYYDLYG [PTPN11_Y62_D61Y] | 17.9 | 1.9 | 17.8 | 15.6 | 8.69 | 4.32 | 9.49 | 18.4 | 7.11 | 7.01 | 21.1 | 1.25 | 1.96
10 | 0.549 | 0.904 | 0.677 | EAVLHYKHQNQ [MTOR_Y1804] | 0.403 | 0.632 | 0.453 | 0.363 | 0.641 | 0.492 | 0.37 | 0.405 | 0.364 | 0.428 | 0.338 | 0.589 | 0.799
11 | 0.825 | 1.03 | 0.535 | GKFHMYVAVWT [F13A1_Y161_R159H] | 0.479 | 1.18 | 0.669 | 0.351 | 1.06 | 0.445 | 0.498 | 0.491 | 0.368 | 0.407 | 0.516 | 1.45 | 1.1
12 | 0.63 | 0.861 | 0.527 | EYLHKYKGFKI [SYNE1_Y6953_Q6951H] | 0.509 | 0.903 | 0.57 | 0.453 | 1.01 | 0.405 | 0.437 | 0.509 | 0.501 | 0.461 | 0.403 | 0.996 | 1.01
13 | 3.31 | 1.23 | 6.91 | CATIHYNYMCN [TP53_Y234_T230A] | 1.99 | 0.78 | 0.563 | 0.435 | 0.717 | 0.573 | 0.487 | 0.591 | 0.389 | 0.464 | 0.6 | 0.511 | 0.896
14 | 4.37 | 0.945 | 5.24 | LTERSYSFVTT [ACTA1_Y200_G199S] | 0.984 | 0.951 | 0.718 | 2.56 | 1.03 | 2.92 | 1.04 | 0.543 | 0.856 | 0.622 | 0.973 | 0.889 | 1.24
15 | 0.83 | 1.02 | 1.11 | YPLELYERVRM [PRKCG_Y312] | 1.18 | 1.19 | 0.622 | 0.432 | 1.25 | 3.71 | 1.65 | 2.02 | 0.699 | 0.518 | 0.481 | 0.632 | 1.25
16 | 0.781 | 0.822 | 0.689 | ISKTWYSAEQF [CD207_Y217_P213S] | 1.8 | 0.793 | 0.757 | 7.68 | 0.604 | 0.521 | 0.481 | 1.84 | 0.522 | 0.532 | 0.605 | 0.585 | 0.837

Continued, sequence first:

Row | Sequence | SH2 binding enrichment (SHP2-C SH2) | SH2 binding enrichment (Grb2 SH2) | SH2 binding enrichment (c-Src SH2) | phosphorylation enrichment (EPHB2) | phosphorylation enrichment (AncSZ) | phosphorylation enrichment (FGFR3) | phosphorylation enrichment (MERTK) | phosphorylation enrichment (Jak2) | phosphorylation enrichment (Fer (mouse)) | phosphorylation enrichment (Hck) | phosphorylation enrichment (EPHB1) | phosphorylation enrichment (c-Src) | phosphorylation enrichment (Fyn) | phosphorylation enrichment (FGFR1) | phosphorylation enrichment (c-Abl (mouse)) | phosphorylation enrichment (Fes)
17 | TSEASYYKSLN [NGEF_Y288] | 0.518 | 0.684 | 0.528 | 0.498 | 0.743 | 0.707 | 0.535 | 0.802 | 0.464 | 0.407 | 0.575 | 0.49 | 0.464 | 0.516 | 0.658 | 0.789
18 | SVTCTYSPALN [TP53_Y126] | 0.616 | 0.766 | 0.401 | 0.723 | 1.53 | 0.984 | 0.456 | 1.45 | 0.626 | 0.641 | 0.794 | 0.66 | 0.489 | 0.517 | 0.976 | 1.72
19 | KDHLDYKFQPR [SOX9_Y172_P170L_YF] | 0.685 | 0.823 | 0.47 | 0.478 | 0.73 | 0.531 | 0.409 | 0.922 | 0.392 | 0.352 | 0.475 | 0.504 | 0.431 | 0.498 | 0.642 | 1.02
20 | LIGTPYWMAPE [PAK5_Y608_V604I] | 3.03 | 1.23 | 0.882 | 1 | 1.74 | 3.65 | 1.32 | 1.17 | 0.917 | 1 | 1.4 | 2.6 | 0.825 | 4.64 | 0.987 | 1.51
21 | SSNLFYRCLTA [CNGA3_Y169_W171C_YF] | 0.518 | 0.808 | 0.399 | 0.632 | 1.03 | 0.742 | 0.42 | 1.12 | 0.497 | 0.429 | 0.638 | 0.454 | 0.384 | 0.491 | 1.06 | 1.36
22 | SLGSPYEQPPR [PDLIM4_Y137_G138E] | 1 | 0.887 | 1.05 | 0.493 | 0.909 | 0.565 | 0.581 | 0.673 | 0.474 | 0.619 | 0.487 | 0.547 | 0.495 | 0.46 | 0.747 | 0.757
23 | MDDPRYGMCPL [ZNF100_Y6] | 0.506 | 0.632 | 0.522 | 0.675 | 1.16 | 0.838 | 0.56 | 1.27 | 0.607 | 0.56 | 0.687 | 0.685 | 0.721 | 0.538 | 1.01 | 1.38
24 | NVDGKYSFLKV [GRM3_Y478_G475D_YF] | 0.944 | 1.06 | 0.826 | 0.356 | 0.624 | 0.505 | 0.508 | 0.719 | 0.48 | 0.431 | 0.394 | 0.439 | 0.383 | 0.426 | 0.534 | 0.824
25 | EWLRGYLENGK [HLA-C_Y195_R194G] | 1.06 | 0.871 | 0.43 | 0.683 | 0.844 | 0.601 | 0.394 | 0.777 | 0.436 | 0.483 | 0.51 | 0.481 | 0.464 | 0.481 | 0.97 | 0.921
26 | VTPVMYTYDEY [COL10A1_Y623_G618V] | 0.685 | 1.05 | 2.44 | 0.798 | 1.15 | 0.795 | 0.912 | 0.917 | 0.542 | 0.932 | 0.633 | 2.22 | 1.61 | 0.637 | 0.568 | 1.05
27 | SGTYQYIIAKF [FOXL2_Y83_I80T] | 0.541 | 0.74 | 0.696 | 1.53 | 1.43 | 2.42 | 5.26 | 1.29 | 2.58 | 2.06 | 4.98 | 0.943 | 0.749 | 3.65 | 1.17 | 1.51
28 | GRSTFYWPRPR [GAGE12J_Y10_YF] | 0.64 | 0.844 | 0.563 | 0.472 | 0.831 | 0.47 | 0.538 | 0.644 | 0.463 | 0.713 | 0.446 | 0.501 | 0.474 | 0.48 | 0.573 | 0.602
29 | FASALYRQRRS [FGF11_Y162_YF] | 0.576 | 0.79 | 0.516 | 0.622 | 0.689 | 0.531 | 0.565 | 0.468 | 0.991 | 0.546 | 0.513 | 0.577 | 0.577 | 0.668 | 0.563 | 0.592
